Assay results from patent publication US20130195872A1 (NOVIMMUNE S A, published 2013).
Changes are numbered by the printed parent chain.

T1: cynomolgus IL-17A homodimer (cynomolgus, UniProt A0A2K5TTB0 20-155)
T1 sequence: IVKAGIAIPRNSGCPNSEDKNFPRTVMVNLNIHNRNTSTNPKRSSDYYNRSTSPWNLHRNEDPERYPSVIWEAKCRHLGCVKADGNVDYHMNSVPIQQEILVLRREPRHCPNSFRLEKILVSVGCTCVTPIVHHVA

T2: human IL-17A homodimer (human, UniProt Q16552 20-155, limits assumed)
T2 sequence (looked up): T1 sequence with A7T, S12P, S38N, V81I, K82N, R108P

T3: human IL-17A/IL-17F heterodimer (human, UniProt Q16552 24-155; Q96PD4 31-163, limits assumed)
T3 construct: Bought heterodimer; also called hu IL17A-F heterodimer; huIL-17A/F
T3 sequence (looked up) 1: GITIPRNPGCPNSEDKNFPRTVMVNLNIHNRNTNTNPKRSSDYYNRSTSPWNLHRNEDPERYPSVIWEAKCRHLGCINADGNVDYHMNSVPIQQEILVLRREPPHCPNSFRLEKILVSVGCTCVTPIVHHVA
T3 sequence (looked up) 2: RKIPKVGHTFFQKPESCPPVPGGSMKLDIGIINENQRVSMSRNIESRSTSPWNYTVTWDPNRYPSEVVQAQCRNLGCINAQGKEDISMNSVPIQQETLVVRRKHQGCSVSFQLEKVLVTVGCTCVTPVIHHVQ

T4: cynomolgus IL-17F homodimer (cynomolgus, UniProt G7P4V0 31-163)
T4 construct: range 31-163; Produced in house in PEAK cells, His-tagged, predominantly disulfide-linked homodimer; also called cyIL-17F; cnIL-17F; not shown: N-terminal His tag
T4 sequence: T3 sequence (looked up) 2 with G22E, I29T, R73K, N74H, V100L, I129V

T5: rat IL-17A homodimer (rat, UniProt Q61453 18-150, limits assumed)
T5 sequence (looked up): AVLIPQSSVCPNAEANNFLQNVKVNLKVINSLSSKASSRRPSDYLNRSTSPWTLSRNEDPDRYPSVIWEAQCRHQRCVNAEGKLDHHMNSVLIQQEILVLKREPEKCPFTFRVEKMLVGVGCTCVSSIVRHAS

T6: mouse IL-17A homodimer (mouse, UniProt Q62386 26-158, limits assumed)
T6 sequence (looked up): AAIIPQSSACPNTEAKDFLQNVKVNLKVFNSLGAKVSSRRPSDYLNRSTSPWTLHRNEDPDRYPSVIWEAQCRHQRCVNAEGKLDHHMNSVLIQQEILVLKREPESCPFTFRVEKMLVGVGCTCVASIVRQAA

T7: mouse IL-17F homodimer (mouse, UniProt Q7TNI7 29-161, limits assumed)
T7 sequence (looked up): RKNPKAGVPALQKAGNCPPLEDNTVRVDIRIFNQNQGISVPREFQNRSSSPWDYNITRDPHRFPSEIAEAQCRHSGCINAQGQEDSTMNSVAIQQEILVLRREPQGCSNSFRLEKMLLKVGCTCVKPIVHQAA

B1: 30D12 antibody (antibody, IgG1, V domains shown)
VH: QVQLVQSGAEVKKPGASVKVSCKASGYTFTSYDINWVRQATGQGLEWMGWMNPDSGVIRYAQKFQGRVTMTRNTSISTAYMELNSLRSEDTAVYYCAREWFGELPSYYFYSGMDVWGQGTTVTVSS
VL: EIVLTQSPATLSLSPGERATLSCRASQSVSSYLAWYQQKPGQAPRLLIYDASNRATGIPARFSGSGSGTDFTLTISSLEPEDFAVYYCQQRSNWPPTFGPGTKVDIK
notes: Fully human monoclonal antibody; also called 30D12 IgG1
B2: 39F12 antibody (antibody, IgG4, V domains shown)
VH: QVQLVQSGAEVKKPGSSVKVSCKASGGTLSSYAFSWVRQAPGQGLEWMGGIIPFFGTTNYAQKFQGRVIITADESTNTAYMELSGLRSEDTAVYYCARDRDYYGLGSPFYYYGMDVWGQGTTVTVSS
VL: EIVLTQSPDFQSVTPKEKVTITCRASQSIGSSLHWYQQKPDQSPKLLIKYASQSFSGVPSRFSGSGSGTDFTLTINSLEAEDAAAYYCHQSSSLPWTFGQGTKVEIK
notes: also called Mab06a; 39F12 IgG4
B3: 15E6 antibody (antibody, IgG4, V domains shown)
VH: EVQLVESGGGLVQPGRSLRLSCAASGFTFDDYAMHWVRQAPGKGLEWVSGINWNSGGIGYADSVKGRFTISRDNAKNSLYLQMNSLRAEDTALYYCARDMGGFGEFYWNFGLWGRGTLVTVSS
VL: not shown
notes: also called 15E6 IgG4
B4: 29D8 antibody (antibody, IgG1, V domains shown)
VH: QVQLVQSGAEVKKPGASVKVSCKAFAYTFSTYGISWVRQAPGQGLEWMGWISAYNSNTNYAQKVQGRITMTTDTSTRTAYMELRGLRSDDTAVYFCATFFGGHSGYHYGLDVWGQGTTVTVSS
VL: EIVLTQSPATLSLSPGERATLSCRASQSVSSYLAWYQQKPGQAPRLLIYDASNRATGIPARFSGSGSGTDFTLTISSLEPEDFAVYYCQQRSNWPPYTFGQGTKLEIK
B5: 38B1 antibody (antibody, IgG1, V domains shown)
VH: EVQLVESGGGLVQPGRSLRLSCAASGFTFDDFAMHWVRQAPGKGLEWVSGINWNSGSIGYADSVKGRFTISRDNAKNSLYLQMNSLRAEDTALYYCAKDIAAAGEFYFDMDVWGQGTTVTVSS
VL: B1 VL with P100Q, V104L, D105E
notes: also called 38B1 IgG1
B6: 12B12 antibody (antibody, IgG4, V domains shown)
VH: B2 VH with T58V, I69T, G85S, F109L, Y110H, M114L
VL: B2 VL
B7: 15B7 antibody (antibody, IgG4, V domains shown)
VH: B2 VH with T58A, N59H, I69T, G85S, L105S, Y110H, Y111F, Y112S, M114L
VL: B2 VL
B8: 1E4 antibody (antibody, IgG4, V domains shown)
VH: QVQLVQSGAEVKKPGASVKVSCKASVYTFTTYGISWVRQAPGQGLEWMGWISVYNGNTNYGQNFQGRVSMTTDTSTSTAYMELRSLRSDDTAVYYCASFHGGHSGYHYGLDVWGQGTTVTVSS
VL: B4 VL
B9: 31A3 antibody (antibody, IgG1, V domains shown)
VH: B8 VH with S52T, G61A, N63K, Q65H, S69T
VL: B4 VL
B10: 8B11 antibody (antibody, IgG3, V domains shown)
VH: EVQLVESGGGLVHPGGSLRLSCAASGFTFSSFNMDWVRQAPGKGLEWVSSISTTSRIIYSADSVKGRFTISRDNARNSLYLQMNSLRDEDTAVYYCARVSYYGHGFDYWGQGTLVTVSS
VL: DIQMTQSPSSLSASVGDRVTITCRASQGISSWLAWYQQKPEKAPKSLIYAASSLQSGVPSRFSGSGSGTDFTLTISSLQPEDFATYYCQQYNSYPLTFGGGTKVEIK

molecular target: T1, cynomolgus IL-17A homodimer; experiment: cell-based or functional assay

Row | Binder | IC50, IL-6 secretion by HFFF2 human fibroblasts, cytokine at 25 ng/ml [nM]
1 | B1 | 6.6
2 | B2 | 15
3 | B3 | 4.5

molecular target: T2, human IL-17A homodimer; experiment: cell-based or functional assay

Row | Binder | IC50, IL-6 secretion by HFFF2 human fibroblasts, cytokine at 25 ng/ml [nM]
4 | B1 | 4.2
5 | B4 | 36
6 | B2 | 14
7 | B3 | 3.9

molecular target: T3, human IL-17A/IL-17F heterodimer; experiment: SPR Biacore, mAb captured, cytokine as analyte
Protocol: (§1) The affinity and binding kinetics of huIL-17F cross-reactive antibodies were characterized on a Biacore 2000 instrument (Biacore AB, Uppsala, Sweden). […] This surface was used to capture huIL-17A/F antibodies. The surface was regenerated after each cycle by injection of 10 mM glycine pH=1.5 at 20 μL/min, for 30 s followed by 1 min of stabilization time in HBS-EP buffer (Biacore AB, Uppsala, Sweden).
(§2) All solutions were diluted in HBS-EP buffer. Injection was performed at 75 μl/min for 3 min followed by 12 min of dissociation time and the temperature was set at 25° C.

Row | Binder | Kd [nM]
8 | B1 | 0.0981
9 | B2 | 0.402
10 | B3 | 0.0447

molecular target: T2, human IL-17A homodimer; experiment: SPR Biacore, mAb captured, cytokine as analyte
Protocol: as §1, §2

Row | Binder | Kd [nM]
11 | B1 | 0.0594
12 | B2 | 0.0895
13 | B3 | 0.0364

molecular target: T1, cynomolgus IL-17A homodimer; experiment: FLISA, cytokine on beads
Protocol: (§3) After an incubation period of 2 to 8 hours the fluorescence of the beads was measured in an 8200 Cellular Detection System analyzer (Applied Biosystems). Hybridomas producing human IgGs that bound to huIL-17F, huIL-17A or both huIL-17F and huIL-17A, but not to BSA, were expanded and subjected to further analysis.
(§4) huIL-17F antibodies were tested for their ability to bind to the other members of the IL-17 family of cytokines, as well as to IL-17A and IL-17F from other species. The assay was performed in the FLISA format, as described above.

Row | Binder | binding result
14 | B5 | binds

molecular target: T4, cynomolgus IL-17F homodimer; experiment: FLISA, cytokine on beads
Protocol: as §3, §4

Row | Binder | binding result
15 | B5 | binds

molecular target: T5, rat IL-17A homodimer; experiment: cell-based or functional assay

Row | Binder | IC50, IL-6 secretion by MEF cells, cytokine at 5 ng/ml [nM]
16 | B1 | > 1000
17 | B6 | > 1000
18 | B7 | > 1000
19 | B2 | > 1000

molecular target: T6, mouse IL-17A homodimer; experiment: cell-based or functional assay

Row | Binder | IC50, IL-6 secretion by MEF cells, cytokine at 5 ng/ml [nM]
20 | B6 | > 1000
21 | B7 | > 1000
22 | B2 | > 1000

molecular target: T7, mouse IL-17F homodimer; experiment: cell-based or functional assay

Row | Binder | IC50, IL-6 secretion by MEF cells, cytokine at 50 ng/ml [nM]
23 | B6 | 4.2
24 | B7 | 22
25 | B2 | 4
26 | B3 | > 1000

molecular target: T1, cynomolgus IL-17A homodimer; experiment: cell-based or functional assay; remark: another data set of the same source

Row | Binder | IC50, IL-6 secretion by MEF cells, cytokine at 5 ng/ml [nM]
27 | B1 | 3
28 | B4 | 8.4
29 | B6 | 13
30 | B7 | 140
31 | B2 | 4.7
32 | B3 | 2
33 | B8 | 330
34 | B9 | 290
35 | B10 | 230

molecular target: T3, human IL-17A/IL-17F heterodimer; experiment: cell-based or functional assay

Row | Binder | IC50, IL-6 secretion by MEF cells, cytokine at 17.5 ng/ml [nM]
36 | B1 | 31
37 | B4 | 1.1
38 | B6 | 13
39 | B7 | 160
40 | B2 | 11
41 | B3 | 1.1
42 | B8 | 16
43 | B9 | 9.2
44 | B10 | 240
45 | B5 | 910

molecular target: T4, cynomolgus IL-17F homodimer; experiment: cell-based or functional assay

Row | Binder | IC50, IL-6 secretion by MEF cells, cytokine at 25 ng/ml [nM]
46 | B1 | 130
47 | B4 | 3.6
48 | B6 | 3.2
49 | B7 | 15
50 | B2 | 5.2
51 | B3 | 1.4
52 | B8 | 3.4
53 | B9 | 4.2
54 | B10 | 50

molecular target: cynomolgus IL-17A/IL-17F heterodimer (cynomolgus); experiment: cell-based or functional assay

Row | Binder | IC50, IL-6 secretion by MEF cells, cytokine at 25 ng/ml [nM]
55 | B1 | 15
56 | B4 | 0.56
57 | B2 | 16
58 | B3 | 0.18

molecular target: T2, human IL-17A homodimer; experiment: cell-based or functional assay; remark: another data set of the same source

Row | Binder | IC50, IL-6 secretion by MEF cells, cytokine at 5 ng/ml [nM]
59 | B1 | 1.1
60 | B4 | 40
61 | B6 | 33
62 | B7 | 180
63 | B2 | 9.8
64 | B3 | 1.6
65 | B8 | 480
66 | B10 | 100
67 | B5 | > 1000
